Positions count from the first letter of the chain named. Entries after “also recorded” stand apart in the source; their conditions may differ.
Legend:
[1] = tested on: TNF-a, RANKL, IL-1β, CCL-2, MMP-1, MMP-3, IL-6, VCAM-1; assay: Semiquantitative reverse transcription PCR of inflammatory mediators in CIA mouse foot tissue; format: in vivo; conditions: CIA mouse, 30 mg/kg, FIG. 26
Experimental: The distribution of inflammation in the foot tissue may be somewhat differently observed according to the regions, and its quantitative research is difficult. Thus, in the hind leg of a mouse CIA model treated with MFK24, the change in inflammatory mediators according to the onset of arthritis was measured by a semiquantitative reverse transcription PCR method using a Taqman probe, as described below.
From a mouse CIA model, a foot tissue was separated, and its skin was removed. The remaining tissue was grinded by a tissue homogenizer, and an extraction reagent (Easy-spim™, Intron) was used to extract all RNAs. They were quantified, and for 7 μg of RNA, a reverse transcriptase reaction was carried out by using AMV reverse transcriptase (Roche, 0.5 ul), oligo dT (Roche, 1 ul), and 10 mM dNTP (Takara, 2 ul) RNase inhibitor (Roche, 0.1 ul). For TNF-a, RANKL, IL-1β, CCL-2, MMP-1, MMP-3, IL-6, VCAM-1 and 18S RNA of a mouse, semiquantitative PCR was performed by using primers (Bioneer, Daejeon) and a Taqman probe (Roche, Germany) in LC480 (Roche, Germany), so as to determine the number of transcripts. Quantitative analysis of the transcripts was performed through comparison with 18S RNA transcripts. The primer pairs for the semiquantitative PCR are noted in [table8].

[2] = tested on: foot tissue of CIA mouse (Synovial membrane, cartilage, bones; CD31, ICAM-1); assay: Histologic and immunohistochemistry test on foot tissue of CIA mouse; format: in vivo; conditions: CIA mouse, 50th day
Experimental: In order to determine the action mechanism of an arthritis therapeutic effect in a CIA model, on the 50th day following the second injection of the bovine type 2 collagen (after 4 weeks from the onset (the 23rd day) of arthritis following the second injection of the bovine type 2 collagen), foot tissues of treatment groups were separated and subjected to histologic analysis. Then, in the tissues, a change in the expression of inflammatory mediators was examined.
A tissue sample was prepared by the following process. Skin on the foot tissue was removed. Then, the tissue was fixed in 10% formalin solution for 2 days, and demineralized in 10% EDTA solution. The demineralized tissue was subjected to a dehydrating process and a clearing process, paraffin-embedded, and was made into a fragment with a thickness of 3 um by a microtome. The tissue fragment was deparaffinized and re-dehydrated by 100% xylene and ethanol, and then non-specific peroxidase within the tissue was blocked by a solution of 0.3% hydrogen peroxide dissolved in 100% methanol.
In order to carry out an immunohistochemistry test, binding of non-specific protein was blocked by 5% BSA. Then, the tissue was cultured, together with each primary antibody (as endothelial cell markers, an antibody to CD31, and an antibody to ICAM-1 (intercellular adhesion molecule-1)), at 4° C. for 12 to 14 hours, and washed with washing buffer (0.1% BSA, 0.2% gelatin, 0.05% saponin). It was cultured together with a secondary antibody labeled with biotin at room temperature for 30 minutes, was washed, reacted with Vectastatin ABC kit (Vector Laboratories, U.S.), and was mounted with Eukitt mounting media (Fluka, Germany) for observation.

[3] = tested on: collagen-induced arthritis (CIA) mouse model; assay: Arthritis therapeutic effect in CIA mouse (clinical arthritis index); format: in vivo
Experimental: A CIA mouse model having the similar characteristic to that of human rheumatoid arthritis was prepared according to the description in a known literature (Protocol for the successful induction of collagen-induced arthritis (CIA) and collagen antibody-induced arthritis (CAIA) in mice. Chondrex, Redmond, Wash.): Bovine type 2 collagen 100 ug was mixed with Freund's complete adjuvant, and hypodermically inoculated into the tail of the mouse. After 3 weeks, bovine type 2 collagen 100 ug was mixed with Freund's incomplete adjuvant, and inoculated again into the tail of the mouse. Then, the mouse was used in the experiment.
In order to find out the therapeutic effect of arthritis in a CIA model, for four weeks from the onset (the 23rd day) of arthritis following the second injection of the bovine type 2 collagen, MFK23 or MFK24 was daily injected into the abdominal cavity in doses of 0.1 mg/kg, 1 mg/kg, 10 mg/kg and 30 mg/kg. As a control group, the same amount of PBS was injected into the abdominal cavity. From the 23rd day to the 50th day, by using a Clinical arthritis index, the severity of arthritis was daily determined. The determination was based on the following data.
0; no symptom, 1; edema in one articulation or light edema, 2; severe edema in 2 or more articulations, 3; severe edema in most articulations, 4; severe edema in the whole of legs.

[4] = tested on: ICAM-1 and RANKL; assay: Immunoblot of ICAM-1 and RANKL in CIA mouse model; format: in vivo; conditions: 30 mg/kg, FIG. 27
[5] = tested on: mouse fibroblast (NIH3T3); assay: βig-h3-mediated cell adhesion test, NIH3T3; format: cell-based; conditions: NIH3T3, βig-h3 5 ug/ml coat
Experimental: (§1) Human βig-h3 was introduced into a 96-well plate at a concentration of 5 ug/ml, and coated for 14 hours at 4° C. In DMEM+0.5% BSA (Bovine Serum Albumin) culture medium, human fibroblast (NIH3T3) was introduced, and hsdhFas-1 peptide at concentrations was injected thereto, followed by mixing. The resultant mixture was cultured at 37° C. for 30 minutes, and plated on a coated well. It was cultured for 2 hours, and washed with PBS (phosphate buffered saline) so as to remove unattached cells, and then added with a substrate (4-Nitrophenyl N-acetyl-β-D-glucosaminide, Sigma, U.S.) to be activated by β-N-acetylglucosaminidase within the cell, followed by culturing at 37° C. for 1 hour. Then, a glycine EDTA solution (0.5M EDTA, 50 mM glycine, pH 10.4) was added thereto, and the coloring extent according to the number of attached cells was measured by absorbance.
Also, a structurally modified peptide of a fas-1 domain of mouse βig-h3 was synthesized as a recombinant peptide (hereinafter, referred to as ‘mdhFas-1peptide’, see FIG. 2), and a mouse cell line, that is, NIH3T3 cell line, was used to test the inhibiting effect by mdhFas-1 peptide on adhesion and migration of a Synovial membrane cell in the same manner as that in the test using human βig-h3.
as §1, with “βig-h3” for “Human βig-h3”, “mouse” for “human”, “MFK23, MFK24, MFK25 or MFK27” for “hsdhFas-1 peptide”

[6] = Toxicity test in CIA mouse (weight, serologic test, blood test); conditions: CIA mouse, 22nd day vs 48th day
Experimental: On the 48th day, a serologic test and a blood test were carried out.

[7] = tested on: NIH3T3; assay: βig-h3-mediated cell migration test (transwell), NIH3T3; format: cell-based, mouse; conditions: 7 hours
Experimental: In the lower compartment of a transwell filter having an 8 um hole size allowing cells to be migrated, βig-h3 was cultured at 4° C. for 12 to 14 hours and coated. In DMEM+0.5% BSA culture medium, NIH3T3 was introduced, and administered with MFK23, MFK24 or MFK25 at concentrations, followed by mixing. The resultant mixture was cultured at 37° C. for 30 minutes, inoculated into the upper chamber of the coated well, and cultured for 7 hours at 37° C. Then, the cells migrated to the lower compartment of the filter were fixed by paraformaldehyde, and strained by a crystal violet. The cells […] remaining in the upper chamber were wiped out and the number of cells migrated to the lower compartment was microscopically counted.

[8] = tested on: human fibroblast-like synovicyte (FLS); assay: βig-h3-mediated cell adhesion test, FLS; format: cell-based
Experimental: as §1, with “βig-h3” for “Human βig-h3”, “fibroblast-like synovicyte (FLS)” for “fibroblast (NIH3T3)”, “HsFJ24, HsFJ25 or HsFJ27” for “hsdhFas-1 peptide”

[9] = tested on: human fibroblast (NIH3T3); assay: Cell adhesion test on human βig-h3 coated plate (hsdhFas-1); format: cell-based; conditions: human βig-h3 5 ug/ml coat, FIG. 3
Experimental: as §1

B1: MFK12: a peptide having mdhFas-1 (as a basic structure) linked to an RGDSP (SEQ ID NO: 9) peptide (protein)
chain: QAMPPEELNKLLANAKELTNILKYHIGDEILVSGGIGALVRLKSLQGDKLEVSSKNNVVSVNKEPVAETDIMEFGGRGDSPDDDDDLE
modifications: MFK12
[1]
  expression levels of TNF-a, IL-6, IL-1β, ICAM-1, and RANKL vs arthritis control group: reduced levels
[2]; 10 mg/kg
  proliferation of Synovial membrane tissue cells: hyper-proliferated
  state of the articulation region: the articulation region was destroyed
  vascularization induction and cell adhesion protein expression (CD31, ICAM-1): increased as much as that in the control group
[2]; 30 mg/kg
  proliferation of Synovial membrane tissue cells: inhibited compared to that in the control group
  shape of the foot tissue: nearly normal
  vascularization induction and adhesion protein expression (CD31, ICAM-1): reduced
[3]; 10 mg/kg daily
  arthritis inhibition (clinical arthritis index): about 27%
[3]; 30 mg/kg daily
  arthritis inhibition (clinical arthritis index): about 60%
[3]; daily into the abdominal cavity
  arthritis inhibiting effect (clinical arthritis index), in words: concentration-dependently inhibited
[4]
  expression levels of ICAM-1 and RANKL vs arthritis control group: reduced levels
[5]
  βig-h3-mediated cell adhesion: inhibited the adhesion and migration of a cell even at a lower concentration than that in Comparative Example 1; also recorded: concentration-dependently inhibited
[6]
  body weight change compared to control group: abnormal findings in the weight change were not observed
[7]
  βig-h3-mediated cell migration: inhibited the adhesion and migration of a cell even at a lower concentration than that in Comparative Example 1; also recorded: concentration-dependently inhibited

B2: HsFJ24: fusion peptide having sequential links of hsdhFas-1, MMP1 substrate GPQGIAG (SEQ ID NO: 6), and QERGDSLA (SEQ ID NO: 10) (protein)
chain: RALPPRERSRLLGDAKELANILKYHIGDEILVSGGIGALVRLKSLQGDKLEVSLKNNVVSVNKEPVAEPDIMEFGPQGIAGVDGQERGDSLAGLE
modifications: hsFJ24
[8]
  βig-h3-mediated adhesion of FLS: concentration-dependently inhibited

B3: HsFJ25: fusion peptide having sequential links of hsdhFas-1, MMP consensus substrate GPLGIAG (SEQ ID NO: 7), and QERGDSLA (SEQ ID NO: 10) (protein)
chain: B2 chain with Q77L
modifications: hsFj25
[8]
  βig-h3-mediated adhesion of FLS: concentration-dependently inhibited

B4: hsdhFas-1: peptide prepared by removing H1 and H2 regions from the fourth fas-1 domain of human βig-h3 (protein)
chain: RALPPRERSRLLGDAKELANILKYHIGDEILVSGGIGALVRLKSLQGDKLEVSLKNNVVSVNKEPVAEPDIM
modifications: hsdhFas-1
notes: peptide prepared by removing H1 and H2 regions from the fourth fas-1 domain of human βig-h3
[9]
  βig-h3-mediated adhesion: concentration-dependently inhibited
[7]
  βig-h3-mediated cell migration: concentration-dependently inhibited

B5: HsFJ27: fusion peptide having sequential links of hsdhFas-1, MMP3 substrate GPLGLWARG (SEQ ID NO: 8), and QERGDSLA (SEQ ID NO: 10) (protein)
chain: MALFVRLLALALALALGPAATLARSFRALPPRERSRLLGDAKELANILKYHIGDEILVSGGIGALVRLKSLQGDKLEVSLKNNVVSVNKEPVAEPDIMEFGPLGLWARGVDQERGDSLAGLE
modifications: hsFJ27
[8]
  βig-h3-mediated adhesion of FLS: concentration-dependently inhibited

Reference: patent US9605038B2, “Fusion peptide comprising dhFas-1 domain and MMP substrate and use thereof for preventing and treating rheumatoid arthritis” (Kyungpook National University Industry-Academic Cooperation …, priority 2010, dated 2017)
